Tests used:
Experiment in all cases: indirect ELISA, protein coated, serum 1:100
[1] = target: 6xHis tagged N-terminal fusion protein (gp100 209-217(2M) peptide fused to PVA CP N-terminus) expres (Potato virus A (isolate B11)) (UniProt Q85197)
[2] = target: 6xHis tagged C-terminal fusion protein (gp100 209-217(2M) peptide fused to PVA CP C-terminus) expres (Potato virus A (isolate B11)) (UniProt Q85197)
[3] = target: 6xHis tagged wild type potato virus A coat protein (wtCP) expressed in E. coli from wtCP/pQE (Potato virus A (isolate B11)) (UniProt Q85197)

Measured: optical density at 450 nm

control mouse serum raised against PBS (antibody)
< 0.35 OD 450 nm: all assays above
